Results from publication PMC3858243, “Escherichia coli Ribosomal Protein S1 Unfolds Structured mRNAs Onto the Ribosome for Active Translation Initiation”.

Experiments:
Assay in all cases: EMSA; Not given in the material for EMSA, SPR and filter binding (buffer with monovalent ions and MgCl2; RNA renatured 90°C 1 min, ice, then 25°C 30 min)
S1Δ3-6 = S1Δ3-6 (Escherichia coli, UniProt P0AG67 1-170); settings: protein: recombinant; tags: C-terminal His6; label: 5' 32P; pseudoknot
[1] = target: ribosomal protein S1 wild type (Escherichia coli, UniProt P0AG67 1-557)
S1Δ4-6 = S1Δ4-6 (Escherichia coli, UniProt P0AG67 1-279); settings: protein: recombinant; tags: C-terminal His6; label: 5' 32P; pseudoknot

B1: mut-psk-rpsOSD (structured_RNA)
RNA: GGGAUCGCUGAAUUAGAGAUCGGCGUCCUUUCAUUCUAUAUAGUAAGGAGGUUAAAAUGUCUCUAAGU
With B1 the binding result (S1Δ3-6) was “no binding”, the “apparent K (half saturation)” value [1] was roughly 447 nM and the binding signal (S1Δ4-6) was 5 fold weaker than WT S1.
